In patent US20210189007A1 (BOARD OF REGENTS OF THE UNIVERSITY OF OKLAHOMA, published 2021):

Biological target: T1, DCLK1 isoform 4 purified protein (human, UniProt O15075 314-740)
T1 construct: Purified protein used in Western blot and ELISA; also called Doublecortin-like kinase 1 isoform 4; DCLK1 purified protein
T1 sequence: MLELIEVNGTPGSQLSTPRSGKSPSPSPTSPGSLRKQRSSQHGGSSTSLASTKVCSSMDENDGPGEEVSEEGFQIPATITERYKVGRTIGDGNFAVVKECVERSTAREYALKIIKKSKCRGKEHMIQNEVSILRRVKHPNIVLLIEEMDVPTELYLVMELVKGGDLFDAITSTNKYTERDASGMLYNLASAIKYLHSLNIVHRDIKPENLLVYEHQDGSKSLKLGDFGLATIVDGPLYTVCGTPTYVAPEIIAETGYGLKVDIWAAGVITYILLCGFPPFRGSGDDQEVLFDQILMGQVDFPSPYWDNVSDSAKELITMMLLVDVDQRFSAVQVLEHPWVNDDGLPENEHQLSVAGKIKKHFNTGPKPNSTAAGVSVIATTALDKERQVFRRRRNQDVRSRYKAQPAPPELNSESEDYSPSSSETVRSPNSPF
Test: Western blot on purified protein

B1: CBT-15A monoclonal antibody (antibody, V domains shown)
VH: DVKLVESGGGLVKLGGSLKLSCAASGFTFSSYYMSWVRQTPEKRLELVAAINSNGGSTYYPDTVKGRFTISRDNAKNTLYLQMSSLKSEDTALYYCARHGGNYWYFDVWGAGTTVTVSS
VL: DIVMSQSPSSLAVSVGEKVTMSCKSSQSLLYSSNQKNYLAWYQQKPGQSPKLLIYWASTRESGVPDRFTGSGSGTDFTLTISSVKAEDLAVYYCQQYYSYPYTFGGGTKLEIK
notes: Mouse hybridoma antibody raised against KLH-linked immunogen no; also called CBT-15A mAB; CBT-15 mAB (A)
Q: Does B1 bind?
A: binds
